Patent publication US20220177548A1 (WISTAR INSTITUTE OF ANATOMY AND BIOLOGY, published 2022)

B1: Modified 7 (modified BRAFV600E peptide LATEKSRWSV) (peptide)
peptide: LATEKSRWSV
notes: Synthetic 10-mer
B2: Modified 2 (modified BRAFV600E peptide LMTEKSRWSG) (peptide)
peptide: LMTEKSRWSG
notes: Synthetic 10-mer
B3: Modified 1 (modified BRAFV600E peptide LITEKSRWSG) (peptide)
peptide: LITEKSRWSG
notes: Synthetic 10-mer
B4: Modified 4 (modified BRAFV600E peptide LLTEKSRWSV) (peptide)
peptide: LLTEKSRWSV
notes: Synthetic 10-mer
B5: Modified 6 (modified BRAFV600E peptide LATEKSRWSL) (peptide)
peptide: LATEKSRWSL
notes: Synthetic 10-mer
B6: Modified 5 (modified BRAFV600E peptide LATEKSRWSI) (peptide)
peptide: LATEKSRWSI
notes: Synthetic 10-mer
B7: Unmodified 2 (human BRAFV600E peptide LATEKSRWSG, amino acids 597-606 of BRAFV600E) (peptide)
peptide: LATEKSRWSG
notes: Synthetic 10-mer
B8: Modified 3 (modified BRAFV600E peptide LLTEKSRWSG) (peptide)
peptide: LLTEKSRWSG
notes: Synthetic 10-mer

Target: HLA-A2 (on T2 cells) (human)
Assay: T2 cell binding assay, fluorescence index by flow cytometry

Row | Binder | T2 Binding (FI)
1 | B1 | 1 FI = (MFI peptide/MFI w/o peptide) - 1
2 | B2 | 0.8 FI = (MFI peptide/MFI w/o peptide) - 1
3 | B3 | 1 FI = (MFI peptide/MFI w/o peptide) - 1
4 | B4 | 6.5 FI = (MFI peptide/MFI w/o peptide) - 1
5 | B5 | 0.6 FI = (MFI peptide/MFI w/o peptide) - 1
6 | B6 | 0.7 FI = (MFI peptide/MFI w/o peptide) - 1
7 | B7 | 1.1 FI = (MFI peptide/MFI w/o peptide) - 1
8 | B8 | 0.9 FI = (MFI peptide/MFI w/o peptide) - 1
